Consider 2 molecules from patent publication US20240034783A1 (SOTIO BIOTECH A S, published 2024).

The target in test [1] is T1, human CLDN18.2 (human).
T1 construct: also called huCLDN18.2; hCLDN18.2
The experiment in a line: ELISA on CLDN18.2-lipoparticles. How it is done: (§1) CLDN18.2-lipoparticles and Null-lipoparticles (without antigens) were used to coat 96-well plates at a final concentration of 10 U/ml in 100 mM sodium carbonate, pH 9.6. Upon washing with PBS/0.05% Tween-20 (PBS-T) and blocking with PBS-T/3% BSA for at least 1 h at 37° C., 1:3 serial dilutions of hCl antibodies with a starting concentration of 2 μg/ml were added and incubated for at least 1 h at 37° C.

In test [2] the target is T1, human CLDN18.2. The experiment in a line: flow cytometry titration, PA-TU-8988S-High cells. The procedure:
(§2) In order to have a more homogenous cell population, the cells were sorted by FACS to select only cells with a the higher CLDN18.2 expression. […] After wash in FACS buffer, the cells were incubated with the PE-labeled Fey specific IgG goat anti-human secondary antibody (eBioscience) on ice for 30 min. After wash, the stained cells were resuspended in FACS buffer, analyzed and sorted by a FACSAria™ instrument, separating medium expressing cells from high expressing cells (FIG. 2B). […] HEK293T cells overexpressing CLDN18.2 or CLDN18.1 were generated as described in Example 3 and the expression of CLDN18.2 was analyzed by flow cytometry (FIG. 3).
(§3) A PE-coupled secondary anti-human IgG antibody was added to the cells for additional 30 min at 4° C. after washes with the FC buffer, followed by further washes with FC buffer. The cells were then resuspended in 100 μl FC buffer and measured with a FACSCalibur™ cell analyzer (BD Biosciences, USA).

Test [3] has as its target T1, human CLDN18.2. Briefly: flow cytometry titration, HEK293T cells overexpressing CLDN18.2. The procedure: as §2, §3
On the technique in general: Flow cytometry measures light scatter and fluorescence of single cells or particles in a stream.

Test [4] has as its target T1, human CLDN18.2. Briefly: flow cytometry; % positive tumor cells divided by % positive healthy stomach cells. The procedure: Two Balb/c mice were implanted subcutaneously with 1×10⁶ A549 cells expressing CLDN18.2 in 100 μl of 50% Matrigel and tumors growth was monitored over a few weeks until the tumor reached the desired size between 150-450 mm 3. Healthy stomach tissue and tumor tissue was collected for FC analysis. The collected tissues were cut into small pieces and digested with the Miltenyi tumor dissociation kit (MACS Miltenyi Biotec, Germany). Tissue pieces were incubated with dissociation buffer (prepared according to the manufacturer instruction) in 6 well plates for 30 min in 37° C. under permanent gentle rocking motion. Samples were resuspended and strained through a 70 μm cell strainer (Corning, USA) followed by a wash with 20 ml FC buffer (PBS+2% FBS). Cell suspensions were centrifuged (5 min at 400 g for 4° C.) and the supernatants were discarded. If needed, cell suspensions were passed through a strainer and centrifuged repeatedly and pellets resuspended in 5 ml of red blood cell lysis buffer (Biolegend, USA), incubated on ice for 4 min. After incubation, 25 ml of PBS was added, and the suspensions were centrifuged again (5 min at 400 g for 4° C.). Pellets were resuspended in FC buffer (0.5-3 ml based on pellets). Equal number of cells were transferred into 96 well plates and further processed for FC analysis. The cells in the plates were washed with PBS and centrifuged (400 g for 2 min at 4° C.). […] After incubation, cells were washed twice in PBS and centrifuged (400 g for 2 min at 4° C.). Pellets were resuspended in 50 μl/well of secondary staining mix (PBS+PE-labelled anti-human antibody) (Thermo Fisher Scientific, USA), and incubated 25 min on ice. After incubation cells were washed again twice in PBS. Pellets were resuspended in 100 μl of PBS containing DAPI. Plates were kept on ice until FC analysis. For FC analysis, live cells were separated from dead cells by forward scatter and DAPI stain. Live cells were then gated for the presence of cytokeratin ([…]) and bound CLDN18.2 antibodies (PE positive cells).

Test [5] has as its target T1, human CLDN18.2. The experiment in a line: ELISA on CLDN18.2-lipoparticles, after Asn-deamidation stress test. The procedure:
The stressed and non-stressed sample was stored at −80° C. Asn-deamidation and Asp-isomerization of the samples was analyzed by strong cation exchange (SCX) chromatography. Deamidation of Asn leads in a SCX chromatogram to an increase of the peak area before the main peak (bM), while Asp-isomerization leads in a SCX chromatograph to an increase of the peak area after the main peak (aM) (Du et al. 2012). SCX chromatography was performed on a MAbPac SCX-10 Column (ThermoFisher Scientific, Basel, CH), with buffer A at pH 4.0 and buffer B at pH 11.0. The flow rate was of 0.5 ml/min with a pH gradient of 30-80% buffer B. 10 μg of the sample in 20 μl of buffer A was injected into the column. Sample detection was performed by protein absorbance at 280 nm. […] NS motifs are the second most liable motifs for deamidation.
as §1
Background: In an ELISA, binding on a coated surface is turned into a signal by an enzyme label.

B1: IMAB362 (antibody, human IgG1, kappa, V domains shown)
VH: QVQLQQPGAELVRPGASVKLSCKASGYTFTSYWINWVKQRPGQGLEWIGNIYPSDSYTNYNQKFKDKATLTVDKSSSTAYMQLSSPTSEDSAVYYCTRSWRGNSFDYWGQGTTLTVSS
VL: DIVMTQSPSSLTVTAGEKVTMSCKSSQSLLNSGNQKNYLTWYQQKPGQPPKLLIYWASTRESGVPDRFTGSGSGTDFTLTISSVQAEDLAVYYCQNDYSYPFTFGSGTKLEIKR
notes: Control, chimeric IgG1, synthesized from the published chains; also called Claudiximab; Zolbetuximab
Regarding B1, in the test with human CLDN18.2 [1], the concentration for a half-maximal effect (EC50) (commonly the concentration at which the effect is half-maximal) stood at 0.0515 mg/L. In the test with human CLDN18.2 [2], the EC50 is 0.508 mg/L and the “Max MFI” value came to 1050 MFI. Besides, in the test with human CLDN18.2 [3], the half-maximal effective concentration (EC50) came out at 0.388 mg/L and the “Max MFI” value turned out to be 1970 MFI. Moreover, in the test with human CLDN18.2 [4], the “Ratio tumor/stomach (Average)” value is 0.88, the “Ratio tumor/stomach (Mouse 1)” value was 2.53 and the “Ratio tumor/stomach (Mouse 2)” value turned out to be 0.29.

B2: IMAB362 after the Asn-deamidation stress test (antibody, human IgG1, kappa, V domains shown)
VH: B1 VH
VL: B1 VL
modifications: partly deamidated Asn after 1 week at pH 8.0 and 40 °C; sites not determined (NS motif at LC CDR1 aa 31-32 named as liable); partly deamidated Asn after 1 week at pH 8.0 and 40 °C; sites not determined (NS motif at HC CDR3 aa 103-104 named as liable)
notes: also called stressed IMAB362; deamidated IMAB362
Take B2: in the test with human CLDN18.2 [5], a half-maximal response (EC50) required 0.0951 mg/L and the “fold change of EC50 against non-stressed IMAB362” value worked out at 1.8 fold.
